Source: patent publication US20150071950A1 (SAMSUNG ELECTRONICS, published 2015)

Tests used:
[1] = target: T1, human c-Met/Fc fusion protein (R&D Systems) (human, UniProt P08581 25-932); experiment: SPR, Biacore T100; antibody captured by human Fab capture on CM5 chip, c-Met-Fc as analyte
T1 construct: Bought protein; also called c-Met-Fc (#358-MT/CF, R&D Systems); human c-Met/Fc protein; not shown: Fc part of the bought fusion protein
Protocol: (§1) An examination was made to see whether the antibody-drug conjugates maintain affinity for the antigen.
(§2) Briefly, a human Fab capture (GE Healthcare) was immobilized on CM5 chip (#BR-1005-30, GE) according to the manufacturer's instruction. […] The chip was regenerated with 10 mM Glycine-HCl (pH 1.5). To quantify the affinity, the data obtained above was fitted using BIAevaluation software (GE Healthcare, Biacore T100 evaluation software).

[2] = target: T1, human c-Met/Fc fusion protein (R&D …); experiment: SPR, Biacore T100; ADC captured by human Fab capture on CM5 chip, c-Met-Fc as analyte
Protocol: as §1, §2

[3] = target: T1, human c-Met/Fc fusion protein (R&D …); experiment: ELISA, hybridoma culture on plate-coated human c-Met/Fc fusion protein
Protocol: The hybridoma cell culture obtained in Reference Example 1.1.2 was added in an amount of 50 μL to each well of the plates and incubated for 1 hour. The cells remaining unreacted were washed out with a sufficient amount of Tris-buffered saline and Tween 20 (TBST). Goat anti-mouse IgG-horseradish peroxidase (HRP) was added to the plates and incubated for 1 hour at room temperature. The plates were washed with a sufficient amount of TBST, followed by reacting the peroxidase with a substrate (OPD). Absorbance at 450 nm was measured on an ELISA reader.

T1 sequence (P08581 25-932 limits assumed): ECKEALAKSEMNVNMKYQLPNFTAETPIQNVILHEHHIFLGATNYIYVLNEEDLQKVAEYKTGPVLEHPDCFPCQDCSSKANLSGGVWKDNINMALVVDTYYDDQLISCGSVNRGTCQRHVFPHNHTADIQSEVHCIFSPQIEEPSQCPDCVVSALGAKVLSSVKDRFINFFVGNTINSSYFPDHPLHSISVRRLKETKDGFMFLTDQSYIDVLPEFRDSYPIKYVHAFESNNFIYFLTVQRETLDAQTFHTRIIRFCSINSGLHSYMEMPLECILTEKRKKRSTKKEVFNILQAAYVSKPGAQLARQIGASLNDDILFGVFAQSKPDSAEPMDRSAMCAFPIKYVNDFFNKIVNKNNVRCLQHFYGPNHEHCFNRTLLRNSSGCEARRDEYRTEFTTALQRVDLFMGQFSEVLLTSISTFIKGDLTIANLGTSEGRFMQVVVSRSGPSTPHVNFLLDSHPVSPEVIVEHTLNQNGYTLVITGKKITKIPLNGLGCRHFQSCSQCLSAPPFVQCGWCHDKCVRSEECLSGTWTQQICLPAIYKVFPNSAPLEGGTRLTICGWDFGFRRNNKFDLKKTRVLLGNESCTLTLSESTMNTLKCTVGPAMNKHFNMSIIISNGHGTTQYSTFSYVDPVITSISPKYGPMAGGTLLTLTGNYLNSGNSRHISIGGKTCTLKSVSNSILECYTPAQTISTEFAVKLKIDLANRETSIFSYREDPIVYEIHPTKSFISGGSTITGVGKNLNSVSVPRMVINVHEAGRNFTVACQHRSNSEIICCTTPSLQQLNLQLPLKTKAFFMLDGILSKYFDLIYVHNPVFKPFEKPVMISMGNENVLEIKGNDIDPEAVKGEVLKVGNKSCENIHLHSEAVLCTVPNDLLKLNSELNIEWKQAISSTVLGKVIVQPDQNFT

B1: anti-c-Met antibody L3-1Y/IgG2 (antibody, V domains shown)
VH: EVQLVESGGGLVQPGGSLRLSCAASGFTFTDYYMSWVRQAPGKGLEWLGFIRNKANGYTTEYSASVKGRFTISRDNSKNTLYLQMNSLRAEDTAVYYCARDNWFAYWGQGTLVTVSS
VL: DIQMTQSPSSLSASVGDRVTITCKSSQSLLASGNQNNYLAWYQQKPGKAPKMLIIWASTRVSGVPSRFSGSGSGTDFTLTISSLQPEDFATYYCQQSYSRPYTFGQGTKVEIKR
notes: also called huAbF46-H4-A1 (IgG2 Fc)
[1]
  Kd: 0.058 nM
  koff: 3.42e-05 s⁻¹
  kon: 589000 M⁻¹ s⁻¹

B2: antibody-drug conjugate ADC1 (L3-1Y/IgG2 conjugated with docetaxel by amine coupling, feed molar ratio 5; DAR 3.7) (antibody, V domains shown)
VH: B1 VH
VL: B1 VL
modifications: docetaxel-succinate (NHS-DTX) coupled to primary amines of lysine residues; sites not stated; DAR 3.7 for the whole antibody
notes: also called ADC (DAR 3.7)
[2]
  Kd: 0.0998 nM
  koff: 3.63e-05 s⁻¹
  kon: 364000 M⁻¹ s⁻¹

B3: AbF46, mouse monoclonal antibody to c-Met (hybridoma KCLRF-BP-00220) (antibody, V domains shown)
VH: EVKLVESGGGLVQPGGSLRLSCATSGFTFTDYYMSWVRQPPGKALEWLGFIRNKANGYTTEYSASVKGRFTISRDNSQSILYLQMDTLRAEDSATYYCARDNWFAYWGQGTLVTVSA
VL: DILMTQSPSSLTVSAGEKVTMSCKSSQSLLASGNQNNYLAWHQQKPGRSPKMLIIWASTRVSGVPDRFIGSGSGTDFTLTINSVQAEDLAVYYCQQSYSAPLTFGAGTKLELK
notes: Tested as hybridoma culture supernatant in the selection ELISA; also called mouse antibody AbF46
[3]
  binding result: binds
